Consider three molecules from patent JP2008232916A.

Test [1] addresses 配列番号3のアルファヘリカルペプチド (third helix peptide), displayed on 15 nm gold particles. Description: gold nanoparticle aggregation: 100 µl E. coli lysate supernatant added to 1 ml mixed SEQ 2 and SEQ 3 particles; the read-out belongs to the three-peptide complex.
In test [2] the target is T1, 配列番号2のアルファヘリカルペプチド (second helix peptide), displayed on 15 nm gold particles.
T1 sequence (peptide): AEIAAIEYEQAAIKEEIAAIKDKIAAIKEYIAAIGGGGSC
The test is described as above.

The target in test [3] is T2, 配列番号16のアルファヘリカルペプチド (peptide containing the second helix peptide of the heterodimer), displayed on 15 nm gold particles.
T2 sequence (peptide): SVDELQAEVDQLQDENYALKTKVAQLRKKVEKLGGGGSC
Briefly: gold nanoparticle aggregation: 500 nM free SEQ 15 added to SEQ 16 particles, absorption spectrum.

The target in test [4] is 配列番号3のアルファヘリカルペプチド (third helix peptide), displayed on 15 nm gold particles. Description: gold nanoparticle aggregation: 500 nM free SEQ 1 added to mixed SEQ 2 and SEQ 3 particles; the read-out belongs to the three-peptide complex.
The target in test [5] is T1, 配列番号2のアルファヘリカルペプチド (second helix peptide), displayed on 15 nm gold particles. Described as above.

B1: アルカリフォスファターゼ(配列番号5)と配列番号1のアルファヘリックスとの融合ペプチド(配列番号8) (enzyme)
chain: RTPEMPVLENRAAQGDITAPGGARRLTGDQTAALRDSLSDKPAKNIILLIGDGMGDSEITAARNYAEGAGGFFKGIDALPLTGQYTHYALNKKTGKPDYVTDSAASATAWSTGVKTYNGALGVDIHEKDHPTILEMAKASGLATGNVSTAELQDATPAALVAHVTSRKCYGPSATSEKCPGNALEKGGKGSITEQLLNARADVTLGGGAKTFAETATAGEWQGKTLREQAQARGYQLVNDAASLNAVTEANQQKPLLGLFADGNMPVRWLGPKATYHGNIDKPAVTCTPNPQRNDSVPTLAQMTDKAIELLSKNEKGFFLQVEGASIDKQDHAANPCGQIGETVDLDEAVQRALEFAKKDGNTLVIVTADHAHASQIVAPDTKAPGLTQALNTKDGAVMVMSYGNSEEDSQEHTGSQLRIAAYGPHAANVVGLTDQTDLFYTMKAALGLKGGGSGGGSGGGSLVPRGSAEIAAIKYKQAAIKNEIAAIKQEIAAIEQMIAAI
For B1, the absorption maximum of the gold colloid after addition in test [1] and in test [2] was 555 nm throughout.

B2: 配列番号15で示されるペプチド (first helix peptide of a heterodimer, SEQ ID NO 13, fused in tandem to both ends of the linker SEQ ID NO 14) (peptide)
peptide: TVAQLEEKVKTLRAQNYELKSRVQRLREQVAQLAGGGGSGGGGSGGGGSTVAQLEEKVKTLRAQNYELKSRVQRLREQVAQLA
In turn, B2 gave an absorption maximum of the gold colloid after addition (about 525 nm before) in test [3] of 550 nm.

For the molecule AEIAAIKYKQAAIKNEIAAIKQEIAAIEQMIAAI [配列番号1で示されるアルファヘリカルペプチド (first helix peptide of the heterotrimeric alpha-helical coiled coil)], the absorption maximum of the gold colloid after addition (525 nm before) in test [4] and in test [5] was 555 nm in each case.
